Reference: PMC10388152 (PNAS Nexus, 2023)

Target: the molecule itself
Assay: dynamic light scattering

B1: C-terminal truncated ScBfr (ScBfr 1-152: residues 153-167 removed) (domain or fragment, Streptomyces coelicolor, UniProt Q9S2N0 1-152, looked up)
chain: MQGDPEVIEFLNEQLTAELTAINQYFLHAKLQDHKGWTKLAKYTRAESFDEMRHAEVLTDRILLLDGLPNYQRLFHVRVGQSVTEMFQADREVELEAIDRLRRGIEVMRAKHDITSANVFEAILADEEHHIDYLETQLDLIEKLGESLYLST
stoichiometry N: 24
